The source of these data is patent publication US20170218055A1 (UNIVERSITY OF CHICAGO, published 2017).

First the molecules themselves.
B1: mAb 3D11 (antibody, V domains shown)
VH: QSGPELMKPGASVKISCKASGYSFTSYYMHWVKQSHGKSLEWIGYIDPFNGGTSYNQKFKGKATLTVDKSSSTAYMHLSSLTSEDSAVYYCARYGYDGTFYAMDYWGQGTSVTVSS
VL: RIVLTQSPAITAASLGQKVTITCSASSSVSYMHWYQQKSGTSPKPWIYEISKLASGVPARFSGSGSGTSYSLTISSMEAEDAAIYYCQQWSYPFTFGSGTKLEIK
notes: Mouse IgG2b hybridoma mAb raised against SpAKKAA; also called 3D11-HRP; HRP-3D11
B2: mAb 3A6 (antibody, V domains shown)
VH: QIQLVQSGPELKKPGETVKISCKASGYNFTDYSMHWVKQAPGKGLKWVGWINTETAESTYADDFKGRFAFSLETSASTAYLQINSLKDEDTATFFCAHFDCWGQGTTLTVSS
VL: DVVMTQISLSLPVTLGDQASISCRASQSLVHSNGNTYLNWYLQKPGQSPKLLIHKVSNRFSGVPDRFSGSGSGTDFTLKISRVEAEDLGVYFCSQITYVPWTFGGGTKLEIK
notes: Mouse IgG1 hybridoma mAb
B3: mAb 5A10 (antibody, V domains shown)
VH: EVKLVESGGGLVKPGGSLKLSCAASGFAFSNYDMSWVRQTPEKRLEWVATISSGGTYPYYPDSVKGRFTISRDNAKNTLYLQLSSLRSEDTALYYCARGGFLITTRDYYAMDYWGQGTSVTVSS
VL: TIVLTQSPAIMSASPGEKVTMTCSASSSVSYMYWYQQKPGSSPRLLIYDTSNLASGVPVRFSGSGSGTSYSLTISRMEAEDAATYYCQQWSSYPPTFGGGTKLEIK
notes: Mouse IgG1 hybridoma mAb raised against SpAKKAA; also called 5A10-HRP; HRP-5A10
B4: mAb 2F2 (antibody, V domains shown)
VH: VKLVESGGDLVKPGGSLKLSCAASRFTFSSYVMSWVRQTPEKRLEWVASIGSGGTTYYPDTVKGRFTISRDNARNILYLQMSSLRSDDTAMYYCTRGRGYGFAWYFDVWGAGTTVTVSS
VL: B3 VL
notes: Mouse IgG2b hybridoma mAb
B5: mAb 7E2 (antibody, V domains shown)
VH: QIQLVQSGPELKKPGETVKISCKASGYTFTDYSVHWVKQAPGKGLKWMAWINTATGEPTFADDFKGRFAFSLETSARTAYLQINNLKNEDTATYFCAPQLTGPFAYWGHGTLVTVSA
VL: DIQMTQSPASLSASVGETVTITCRASENIHNYLAWYQQKQGKSPQLLVYNAKTLTDGVPSRFSGSGSGTQFSLKINSLQAGDFGSYYCQHSWSIPYTFGGGTRLQIR
notes: Mouse IgG1 hybridoma mAb
B6: mAb 8E2 (antibody, V domains shown)
VH: KVQLQQSGAGLVKPGASVKLSCKASGYTFTEYSIHWVKQSSGQGLEWIGWFYPGSGYIKYNEKFKDKATLTADKSSSTVYMEFSRLTSEDSAVYFCARHGYGNYVGYAMDYWGQGTSVTVSS
VL: DIQMTQSPASLSASVGETVTITCRASEIIYSYLAWYQQKQGKSPQLLVYFAKTLAEGVPSRFSGSGSGTQFSLKINSLQPEDFGIYYCQHHYGTPYTFGGGTKLEIK
notes: Mouse IgG1 hybridoma mAb
B7: mAb 6D11 (antibody, V domains shown)
VH: QVQLQQSGAELVRPGTSVKVSCKASGNAFTNYLIEWIKQRPGQGLEWIGVINPGSGITNYNEKFKGKATLTADKSSNTAYMQLSSLSSDDSAVYFCSGSANWFAYWGQGTLVTVSA
VL: DIVLTQSPASLAVSLGQRASISCRASESVEYSGASLMQWYQHKPGQPPKLLIYAASNVESGVPVRFSGSGSGTDFSLNIHPVEEDDIAMYFCQQSRKVPSTFGGGTKLEIK
notes: Mouse IgG2a hybridoma mAb

The first experiment has as its target T1, EKKAA immunoglobulin binding domain of SpAKKAA (Staphylococcus aureus, UniProt A0A0H3K686 37-92).
T1 construct: also called SpA-EKKAA; E domain; not shown: N-terminal six histidyl tag (pET15b)
The experiment can be described thus: ELISA, antigen-coated plate.
For the molecule B1, the binding result is “no binding”.

For another experiment, the target named is T2, SpAKKAA (non-toxigenic staphylococcal protein A variant) (Staphylococcus aureus, UniProt A0A0H3K686 37-327).
T2 construct: The four substitutions are made in each of the five domains (20 in all); Purified from E. coli; also called non-toxigenic protein A
Description: ELISA, antigen-coated plate, mAb titrated.
In turn, B1 had a Ka of 3.93e+09 M⁻¹.

As for B2, the Ka came to 1.37e+09 M⁻¹.

For B3, the Ka turned out to be 8.47e+09 M⁻¹.

Take B4: the Ka was 1.9e+09 M⁻¹.

Consider B5, for which the Ka was determined as 3.1e+08 M⁻¹.

In the case of B6, the Ka came out at 1.56e+09 M⁻¹.

Another experiment addresses T1, EKKAA immunoglobulin binding domain of …. Description: ELISA, antigen-coated plate, mAb titrated.
For the molecule B2, the Ka was 1.38e+09 M⁻¹.

With B3, the Ka came out at 9.4e+09 M⁻¹.

Molecule B4 returned a Ka of 1.72e+09 M⁻¹.

B5 gave a Ka of 2.9e+08 M⁻¹.

With B6, the Ka was 1.4e+09 M⁻¹.

The next experiment concerns the target T3, DKKAA immunoglobulin binding domain of SpAKKAA (Staphylococcus aureus, UniProt A0A0H3K686 96-149).
T3 construct: the construct is said to span residues 57-117 of mature SpA (61 residues), so its limits differ from the entry; not shown: N-terminal six histidyl tag (pET15b)
The experiment can be described thus: ELISA, antigen-coated plate, mAb titrated.
On to B3, for which the Ka amounted to 8.19e+09 M⁻¹.

Consider B4, for which the Ka turned out to be 1.76e+09 M⁻¹.

As for B5, the Ka worked out at 3e+08 M⁻¹.

B7 showed a Ka of 2.42e+09 M⁻¹.

On to B6, for which the Ka was 1.51e+09 M⁻¹.

For a further experiment, the target named is T4, AKKAA immunoglobulin binding domain of SpAKKAA (Staphylococcus aureus, UniProt A0A0H3K686 156-207).
T4 construct: the construct is said to span residues 118-175 of mature SpA and its limits may differ from the entry; not shown: N-terminal six histidyl tag (pET15b)
The experiment can be described thus: ELISA, antigen-coated plate, mAb titrated.
Molecule B1 displayed a Ka of 8.7e+08 M⁻¹.

As to B2, the Ka stood at 2.05e+09 M⁻¹.

As for B3, the Ka worked out at 8.08e+09 M⁻¹.

In turn, B4 came in with a Ka of 1.37e+09 M⁻¹.

B5 came in with a Ka of 3.6e+08 M⁻¹.

Take B6: the Ka was 1.52e+09 M⁻¹.

A further experiment has as its target T5, BKKAA immunoglobulin binding domain of SpAKKAA (Staphylococcus aureus, UniProt A0A0H3K686 214-265).
T5 construct: not shown: N-terminal six histidyl tag (pET15b)
The experiment can be described thus: ELISA, antigen-coated plate, mAb titrated. For orientation: ELISA stands for enzyme-linked immunosorbent assay.
In turn, B1 had a Ka of 3.92e+09 M⁻¹.

In turn, B2 registered a Ka of 6.4e+08 M⁻¹.

Turning to B3, the Ka turned out to be 7.03e+09 M⁻¹.

In the case of B4, the Ka came to 1.13e+09 M⁻¹.

B5 came in with a Ka of 3.2e+08 M⁻¹.

In the case of B6, the Ka came to 1.14e+09 M⁻¹.

Another experiment concerns the target T6, CKKAA immunoglobulin binding domain of SpAKKAA (Staphylococcus aureus, UniProt A0A0H3K686 214-323).
T6 construct: the construct is said to span residues 234-291 of mature SpA and its limits may differ from the entry; not shown: N-terminal six histidyl tag (pET15b)
Description: ELISA, antigen-coated plate, mAb titrated.
Turning to B1, the Ka was 3.6e+09 M⁻¹.

As to B2, the Ka worked out at 4e+07 M⁻¹.

In turn, B3 registered a Ka of 1.01e+10 M⁻¹.

B4: the Ka came to 1.8e+09 M⁻¹.

Consider B5, for which the Ka stood at 2.8e+08 M⁻¹.

For B7, the Ka is 4.75e+09 M⁻¹.

Turning to B6, the Ka was 1.26e+09 M⁻¹.

A further experiment deals with T7, peptide H1 (helix 1 of the EKKAA IgBD).
T7 construct: Synthetic linear peptide, free NH2 and COOH ends as printed
T7 peptide: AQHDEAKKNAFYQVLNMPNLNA
The experiment can be described thus: ELISA, antigen-coated plate, mAb titrated.
For the molecule B1, the Ka came out at 2e+07 M⁻¹.

For B2, the Ka came to 6e+07 M⁻¹.

Turning to B7, the Ka stood at 2.7e+08 M⁻¹.

The next experiment has as its target T8, peptide H2 (helix 2 of the EKKAA IgBD).
T8 construct: Synthetic linear peptide
T8 peptide: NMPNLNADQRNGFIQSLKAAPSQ
Description: ELISA, antigen-coated plate, mAb titrated.
The molecule B7 displayed a Ka of 1e+07 M⁻¹.

The target in another experiment is T9, peptide H3 (helix 3 of the EKKAA IgBD).
T9 construct: Synthetic linear peptide
T9 peptide: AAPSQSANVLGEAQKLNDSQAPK
Description: ELISA, antigen-coated plate, mAb titrated.
Molecule B2 had a Ka of 1e+07 M⁻¹.

Another experiment has as its target T10, peptide H1+2 (helices 1+2 of the EKKAA IgBD).
T10 construct: Synthetic linear peptide; also called helix 1+2 peptide
The experiment can be described thus: ELISA, antigen-coated plate, mAb titrated.
In turn, B2 registered a Ka of 4.4e+08 M⁻¹.

B7 returned a Ka of 5.22e+09 M⁻¹.

Take B6: the Ka came out at 2.9e+08 M⁻¹.
